Changes are numbered by the printed parent chain.
How the values were obtained:
[1] = biological target: T1, Human CD39-L2, also known as NTPDase6 or ENTPD6 (human, UniProt O75354 61-484, limits assumed); experiment: ELISA on coated recombinant human CD39-L2, panel huCD39 L2; no legend on the sheet, curve is I-394 by paragraph 85
T1 construct: Recombinant protein coated in ELISA
T1 sequence: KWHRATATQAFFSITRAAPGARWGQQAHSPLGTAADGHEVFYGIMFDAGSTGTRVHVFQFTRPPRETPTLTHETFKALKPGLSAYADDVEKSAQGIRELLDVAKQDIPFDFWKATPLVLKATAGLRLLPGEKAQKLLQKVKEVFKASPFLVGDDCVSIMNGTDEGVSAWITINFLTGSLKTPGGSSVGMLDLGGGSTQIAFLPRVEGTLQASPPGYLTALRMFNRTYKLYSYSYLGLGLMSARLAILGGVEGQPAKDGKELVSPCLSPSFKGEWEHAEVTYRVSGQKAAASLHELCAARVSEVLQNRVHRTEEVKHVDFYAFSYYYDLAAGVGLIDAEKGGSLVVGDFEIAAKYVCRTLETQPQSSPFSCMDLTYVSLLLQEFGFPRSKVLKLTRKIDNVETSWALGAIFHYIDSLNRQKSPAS
Experimental: Wells were washed in TBS Tween 20, and further saturated 2H at RT in TBS Blocking buffer. Dose range concentration of primary antibody was incubated in TBS blocking buffer for 2 h at RT. Wells were washed in TBS Tween 20. […] Optical density was measured on Enspire™ at OD=450.

[2] = biological target: T2, human CD39 expressed at the cell surface (human, UniProt P49961 1-510); experiment: cell-based or functional assay
T2 sequence: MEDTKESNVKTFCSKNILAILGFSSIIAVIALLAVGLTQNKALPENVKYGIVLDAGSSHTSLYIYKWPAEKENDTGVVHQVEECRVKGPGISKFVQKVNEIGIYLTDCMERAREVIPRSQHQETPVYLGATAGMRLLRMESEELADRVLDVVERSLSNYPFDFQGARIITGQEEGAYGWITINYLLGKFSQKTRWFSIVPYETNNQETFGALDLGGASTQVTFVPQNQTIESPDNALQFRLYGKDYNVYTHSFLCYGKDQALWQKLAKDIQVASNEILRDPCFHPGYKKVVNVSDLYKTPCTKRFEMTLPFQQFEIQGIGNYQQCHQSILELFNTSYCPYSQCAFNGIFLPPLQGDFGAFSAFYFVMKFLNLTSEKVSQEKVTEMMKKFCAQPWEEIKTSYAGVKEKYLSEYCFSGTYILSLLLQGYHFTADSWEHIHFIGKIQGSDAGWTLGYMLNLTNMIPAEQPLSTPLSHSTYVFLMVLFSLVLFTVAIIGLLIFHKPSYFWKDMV

[3] = biological target: T3, CD39-M2 extracellular domain recombinant protein (soluble recombinant human CD39 with M2 tag) (human, UniProt P49961 38-478, limits assumed); experiment: cell-based or functional assay
T3 sequence: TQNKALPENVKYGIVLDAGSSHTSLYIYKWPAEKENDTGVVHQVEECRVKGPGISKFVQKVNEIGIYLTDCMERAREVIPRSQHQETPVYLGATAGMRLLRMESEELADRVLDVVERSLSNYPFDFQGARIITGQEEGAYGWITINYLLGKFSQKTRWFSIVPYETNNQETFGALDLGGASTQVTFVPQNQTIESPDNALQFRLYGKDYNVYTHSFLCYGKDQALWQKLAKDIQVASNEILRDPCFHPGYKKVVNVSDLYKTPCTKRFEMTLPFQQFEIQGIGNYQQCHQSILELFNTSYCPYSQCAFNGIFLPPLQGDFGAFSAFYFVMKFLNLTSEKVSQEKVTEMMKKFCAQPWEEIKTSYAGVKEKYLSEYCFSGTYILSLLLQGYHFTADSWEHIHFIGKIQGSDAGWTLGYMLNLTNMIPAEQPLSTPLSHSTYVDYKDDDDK

murine CD39 on CHO cells = biological target: T4, murine CD39 on CHO cells (murine, UniProt P55772 1-510); experiment: flow cytometry titration on CHO cells expressing murine CD39 (Mediane of Fluo), panel CHO-moCD39
T4 construct: whole, on cells; also called CHO-moCD39; moCD39
T4 sequence (looked up): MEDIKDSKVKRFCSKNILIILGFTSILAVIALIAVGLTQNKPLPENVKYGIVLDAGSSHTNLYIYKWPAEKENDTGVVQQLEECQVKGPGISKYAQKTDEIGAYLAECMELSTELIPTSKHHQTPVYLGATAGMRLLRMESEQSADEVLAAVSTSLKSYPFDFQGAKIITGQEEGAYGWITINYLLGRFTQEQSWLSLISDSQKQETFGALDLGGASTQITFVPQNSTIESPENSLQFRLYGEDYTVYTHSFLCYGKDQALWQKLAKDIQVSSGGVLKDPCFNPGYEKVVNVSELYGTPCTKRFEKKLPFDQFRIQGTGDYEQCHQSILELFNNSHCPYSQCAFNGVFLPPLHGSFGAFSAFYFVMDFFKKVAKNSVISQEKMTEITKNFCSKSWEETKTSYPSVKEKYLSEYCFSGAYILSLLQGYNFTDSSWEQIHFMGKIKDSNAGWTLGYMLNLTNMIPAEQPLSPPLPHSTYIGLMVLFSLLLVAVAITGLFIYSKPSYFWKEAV
Experimental: (§1) Cells were incubated with various concentration of unlabeled anti-CD39 antibody from 30 μg/ml to 5×10⁻⁴ μg/ml, for 30 minutes at 4° C. After washes, cells were incubated with Goat anti-mouse H+L labeled secondary antibody for 30 min at 4° C.

[4] = biological target: T5, cynomolgus (Macaca fascicularis) CD39 on CHO cells (cynomolgus (Macaca fascicularis), UniProt A0A7N9DGH8 1-510); experiment: flow cytometry titration on CHO cells expressing cynomolgus CD39 (Mediane of Fluo), panel CHO-cyCD39
T5 construct: whole, on cells; also called CHO-cyCD39; cyCD39
T5 sequence: T2 sequence with V47I, F94Y, V221I, I230T, I329V, K368N, A391S, F489V, T490I
Experimental: as §1

binding result [1]: no binding (tested: about 50 µg/ml)
IC50, inhibition of CD39 ATPase activity in Ramos cells [2]: 0.05 µg/mL
IC50, inhibition of ATPase activity of soluble CD39 [3]: 3 ng/mL
binding result (murine CD39 on CHO cells): no binding (tested: about 30 µg/ml)
EC50 (read off the curve) [4]: ~0.4 µg/mL
B1: I-394 (antibody, human IgG1, V domains shown)
VH: EVQLQQSGPELVKPGASVKMSCKASGYTFTDYNMHWVKQSHGRTLEWIGYIVPLNGGSTFNQKFKGRATLTVNTSSRTAYMELRSLTSEDSAAYYCARGGTRFAYWGQGTLVTVSA
VL: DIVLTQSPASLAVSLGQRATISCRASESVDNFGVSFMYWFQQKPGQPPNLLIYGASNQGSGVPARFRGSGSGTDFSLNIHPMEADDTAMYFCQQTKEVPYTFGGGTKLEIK

Source: patent US20230025732A1 (INNATE PHARMA, published 2023)
